From publication PMC10207940, “Characterization of RBD-specific cross-neutralizing antibodies responses against SARS-CoV-2 variants from COVID-19 convalescents” (Frontiers in Immunology, 2023)

B1: antibody 1D7 (antibody, V domains shown)
VH: QVQLVQSGAEVKTPGSSVKVSCKASGGSFSNYAISWVRQAPGQGLEWMGRIIATLGISNYAQKFQGRVTMTADKSTSTAYMELSSLRSEDTAVYYCASPITNFGVLIEVDAFHIWGQGTMVTVSS
VL: EIVLTQSPFTLSLSPGERATLSCGASQSVSSSYLAWYQQKPGLAPRLLIYDGSSRATDIPDRFSGSGSGTDFTLTISRLEPEDFAMYYCQQYSTSPLTFGGGTKVEIK
B2: antibody 3G10 (antibody, V domains shown)
VH: EVQLVESGGGLVQPGESLRLSCAASGLTVSSNYMSWVRQAPGKGLEWVSVIYAGGSTFYADSVKGRFTISRDNSKNTLYLQMNSLRAEDMAIYYCARDLSYYGMDVWGQGTTVTVSS
VL: DIQLTQFPFSLSASVGDRVTITCRASQGISTYLAWYQQKPGRAPKLLIYAASTLQSGVPSRFSGSGSGTEFTLTISSLQPEDFATYYCQLLNSYPVHFGQGTKLEIK
B3: antibody 3C11 (antibody, V domains shown)
VH: EVQLVESGGGLVQPGGSLRLSCAASGFAFSTYEMNWVRQAPGKGLEWVSYIHNSGNPVYYADSVKGRFTISRDNAENSLYLQMNSLRAEDTAIYYCARALRYSTSWYDYWGQGTLVTVSS
VL: EIVLTQSPVSLSLSPGERATLSCRASQSVSSYLAWYQQKPGQAPRLFIYDASKRATGIPARFSGSGSGTDFTLTISSLEPEDFAVYYCQQRSNWPRTFGQGTKVEIK

Tests used:
[1] = target: T1, SARS-CoV-2 RBD (receptor binding domain) with Avi-tag, biotinylated (SARS-CoV-2, WH-1 (Wuhan-Hu-1, MN908947), UniProt P0DTC2); assay: cell-based or functional assay
[2] = target: T1, SARS-CoV-2 RBD (receptor binding …); assay: BLI; biotinylated RBD (5 μg/mL in PBST: PBS, 0.02% Tween 20, 0.1% BSA) immobilised on streptavidin biosensors; antibodies 500-7.8125 nM, 120 s association, 300 s dissociation; 1:1 binding model; conditions: both partners purified
[3] = target: T2, SARS-CoV-2 RBD as crystallised with 3G10 and 3C11 (SARS-CoV-2, prototype (WH-1)); assay: crystal structure; conditions: both partners purified
T2 construct: also called prototype (PT) RBD

Row | Binder | IC50 of neutralisation of SARS-CoV-2 pseudovirus (WH-1), luciferase read-out on Vero cells [1] [µg/mL] | IC50 of neutralisation of authentic SARS-CoV-2 WH-1 virus, CPE-based method on Vero cells [1] [µg/mL] | Kd [2] [nM] | binding result [3]
1 | B1 | < 0.1 | 0.009 | < 0.001 | 
2 | B2 | < 0.1 | 0.028 | 1.37 | binds
3 | B3 | < 0.1 | 0.028 | 5.29 | binds
